Here are results for 5 sequences from the supplement of paper PMC5998384.

Data set [1] concerns HeLa Kyoto. As to the kind of experiment: melting temperature (median over replicates), in situ; higher = more thermally stable.
The test system of data set [2] is HeLa Kyoto. As to the kind of experiment: thermal stability score vs G1/S (z-score of summed log2 fold changes over temperatures); higher = more thermally stable than in G1/S.
The test system of data set [3] is HeLa Kyoto. As to the kind of experiment: solubility change mitosis vs G1/S (difference of NP-40 vs SDS log2 ratios) (log2 ratio difference); higher = more soluble in mitosis.
Data set [4] deals with HeLa Kyoto. As to the kind of experiment: solubility in G1/S (NP-40 vs SDS abundance) (log2 ratio); higher = more soluble. The conditions noted are these: cell cycle stage: G1/S.
[5] abbreviates: cell cycle stage: early G1 (4.5 h after nocodazole release).
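Wherever melting temperature (median over replicates), in situ is given: HeLa Kyoto cells synchronized by double thymidine or nocodazole block, proteins quantified by TMT10plex mass spectrometry, three independent biological replicates.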
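Wherever solubility change mitosis vs G1/S (difference of NP-40 vs SDS log2 ratios) is given: synchronized HeLa Kyoto cells (double thymidine block for G1/S, nocodazole release for mitosis), protein amounts in NP-40 versus SDS lysates quantified by mass spectrometry, three biological replicates.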
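Wherever solubility in G1/S (NP-40 vs SDS abundance) is given: HeLa Kyoto cells arrested at G1/S by double thymidine block, proteins quantified by TMT10plex mass spectrometry in mild NP-40 versus SDS extracts, three biological replicates.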
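Wherever thermal stability score vs G1/S (z-score of summed log2 fold changes over temperatures) is given: synchronized HeLa Kyoto cells, proteins quantified by TMT10plex mass spectrometry, three biological replicates, mitosis taken 0.5 h after nocodazole release, G1/S directly after double thymidine block.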

For “MAYNDTDRNQTEKLLKRVRELEQEVQRLKKEQAKNKEDSNIRENSAGAGKTKRAFDFSAHGRRHVALRIAYMGWGYQGFASQENTNNTIEEKLFEALTKTRLVESRQTSNYHRCGRTDKGVSAFGQVISLDLRSQFPRGRDSEDFNVKEEANAAAEEIRYTHILNRVLPPDIRILAWAPVEPSFSARFSCLERTYRYFFPRADLDIVTMDYAAQKYVGTHDFRNLCKMDVANGVINFQRTILSAQVQLVGQSPGEGRWQEPFQLCQFEVTGQAFLYHQVRCMMAILFLIGQGMEKPEIIDELLNIEKNPQKPQYSMAVEFPLVLYDCKFENVKWIYDQEAQEFNITHLQQLWANHAVKTHMLYSMLQGLDTVPVPCGIGPKMDGMTEWGNVKPSVIKQTSAFVEGVKMRTYKPLMDRPKCQGLESRIQHFVRRGRIEHPHLFHEEETKAKRDCNDTLEEENTNLETPTKRVCVDTEIKSII [PUS3]”, the melting temperature is 51.6 °C in the data set on HeLa Kyoto [1] (cell cycle stage: G1/S) and 52.7 °C in the data set on HeLa Kyoto [1] (cell cycle stage: mitosis). In addition, the thermal stability score was 0.0981 in the data set on HeLa Kyoto [2] (setting [5]) and -0.181 in the data set with HeLa Kyoto [2] (cell cycle stage: mitosis). In addition, in the data set on HeLa Kyoto [3], the “solubility change mitosis (log2)” value is -0.169. The “solubility in G1/S (log2)” value in the data set on HeLa Kyoto [4] amounted to 0.0227.
Regarding “MAYQSLRLEYLQIPPVSRAYTTACVLTTAAVQLELITPFQLYFNPELIFKHFQIWRLITNFLFFGPVGFNFLFNMIFLYRYCRMLEEGSFRGRTADFVFMFLFGGFLMTLFGLFVSLVFLGQAFTIMLVYVWSRRNPYVRMNFFGLLNFQAPFLPWVLMGFSLLLGNSIIVDLLGIAVGHIYFFLEDVFPNQPGGIRILKTPSILKAIFDTPDEDPNYNPLPEERPGGFAWGEGQRLGG [DERL2]”, the melting temperature in the data set with HeLa Kyoto [1] (cell cycle stage: G1/S) was 54.4 °C. The thermal stability score with HeLa Kyoto [2] (setting [5]) was -0.206; in the data set with HeLa Kyoto [2] (cell cycle stage: mitosis), -1.33. In the data set on HeLa Kyoto [3], the “solubility change mitosis (log2)” value was -0.0878. Further, in the data set on HeLa Kyoto [4], the “solubility in G1/S (log2)” value is -0.0605.
“MCAARLAAAAAAAQSVYAFSARPLAGGEPVSLGSLRGKVLLIENVASLUGTTVRDYTQMNELQRRLGPRGLVVLGFPCNQFGHQENAKNEEILNSLKYVRPGGGFEPNFMLFEKCEVNGAGAHPLFAFLREALPAPSDDATALMTDPKLITWSPVCRNDVAWNFEKFLVGPDGVPLRRYSRRFQTIDIEPDIEALLSQGPSCA [GPX1]”: the results for the melting temperature in the data set on HeLa Kyoto [1] (cell cycle stage: G1/S) and in the data set with HeLa Kyoto [1] (cell cycle stage: mitosis) were 56.8 °C and 56.6 °C, respectively. Moreover, the thermal stability score in the data set on HeLa Kyoto [2] (setting [5]) is 1.13; in the data set with HeLa Kyoto [2] (cell cycle stage: mitosis), -0.307. Further, in the data set with HeLa Kyoto [3], the “solubility change mitosis (log2)” value was -0.15. Also, in the data set on HeLa Kyoto [4], the “solubility in G1/S (log2)” value was determined as 0.559.
On to “MCASVKYNIRGPALIPRMKTKHRIYYITLFSIVLLGLIATGMFQFWPHSIESSNDWNVEKRSIRDVPVVRLPADSPIPERGDLSCRMHTCFDVYRCGFNPKNKIKVYIYALKKYVDDFGVSVSNTISREYNELLMAISDSDYYTDDINRACLFVPSIDVLNQNTLRIKETAQAMAQLSRWDRGTNHLLFNMLPGGPPDYNTALDVPRDRALLAGGGFSTWTYRQGYDVSIPVYSPLSAEVDLPEKGPGPRQYFLLSSQVGLHPEYREDLEALQVKHGESVLVLDKCTNLSEGVLSVRKRCHKHQVFDYPQVLQEATFCVVLRGARLGQAVLSDVLQAGCVPVVIADSYILPFSEVLDWKRASVVVPEEKMSDVYSILQSIPQRQIEEMQRQARWFWEAYFQSIKAIALATLQIINDRIYPYAAISYEEWNDPPAVKWGSVSNPLFLPLIPPQSQGFTAIVLTYDRVESLFRVITEVSKVPSLSKLLVVWNNQNKNPPEDSLWPKIRVPLKVVRTAENKLSNRFFPYDEIETEAVLAIDDDIIMLTSDELQFGYEVWREFPDRLVGYPGRLHLWDHEMNKWKYESEWTNEVSMVLTGAAFYHKYFNYLYTYKMPGDIKNWVDAHMNCEDIAMNFLVANVTGKAVIKVTPRKKFKCPECTAIDGLSLDQTHMVERSECINKFASVFGTMPLKVVEHRADPVLYKDDFPEKLKSFPNIGSL [EXT2]”, for which the melting temperature with HeLa Kyoto [1] (cell cycle stage: G1/S) turned out to be 54 °C; in the data set with HeLa Kyoto [1] (cell cycle stage: mitosis) it was 53.4 °C. Also, the thermal stability score in the data set on HeLa Kyoto [2] (setting [5]) is -1.61; in the data set with HeLa Kyoto [2] (cell cycle stage: mitosis), -1.33. Besides, in the data set on HeLa Kyoto [3], the “solubility change mitosis (log2)” value was found to be 0.0664. In addition, in the data set on HeLa Kyoto [4], the “solubility in G1/S (log2)” value was -0.537.
In the case of “MCGIFAYLNYHVPRTRREILETLIKGLQRLEYRGYDSAGVGFDGGNDKDWEANACKIQLIKKKGKVKALDEEVHKQQDMDLDIEFDVHLGIAHTRWATHGEPSPVNSHPQRSDKNNEFIVIHNGIITNYKDLKKFLESKGYDFESETDTETIAKLVKYMYDNRESQDTSFTTLVERVIQQLEGAFALVFKSVHFPGQAVGTRRGSPLLIGVRSEHKLSTDHIPILYRTARTQIGSKFTRWGSQGERGKDKKGSCNLSRVDSTTCLFPVEEKAVEYYFASDASAVIEHTNRVIFLEDDDVAAVVDGRLSIHRIKRTAGDHPGRAVQTLQMELQQIMKGNFSSFMQKEIFEQPESVVNTMRGRVNFDDYTVNLGGLKDHIKEIQRCRRLILIACGTSYHAGVATRQVLEELTELPVMVELASDFLDRNTPVFRDDVCFFLSQSGETADTLMGLRYCKERGALTVGITNTVGSSISRETDCGVHINAGPEIGVASTKAYTSQFVSLVMFALMMCDDRISMQERRKEIMLGLKRLPDLIKEVLSMDDEIQKLATELYHQKSVLIMGRGYHYATCLEGALKIKEITYMHSEGILAGELKHGPLALVDKLMPVIMIIMRDHTYAKCQNALQQVVARQGRPVVICDKEDTETIKNTKRTIKVPHSVDCLQGILSVIPLQLLAFHLAVLRGYDVDFPRNLAKSVTVE [GFPT1]”, the melting temperature in the data set with HeLa Kyoto [1] (cell cycle stage: G1/S) came to 56.1 °C; in the data set with HeLa Kyoto [1] (cell cycle stage: mitosis) it was 56.2 °C. The results for the thermal stability score in the data set on HeLa Kyoto [2] (setting [5]) and in the data set with HeLa Kyoto [2] (cell cycle stage: mitosis) were -0.54 and 0.683, respectively. In addition, the “solubility change mitosis (log2)” value with HeLa Kyoto [3] is -0.226. Moreover, in the data set on HeLa Kyoto [4], the “solubility in G1/S (log2)” value is -0.169.
